Test results reported in PMC9645627, “Ydj1 interaction at nucleotide-binding-domain of yeast Ssa1 impacts Hsp90 collaboration and client maturation” (PLOS Genetics, 2022).

B1: Ssa1-D158N, purified (natural protein)
chain: not shown
notes: Ssa1, cytosolic Hsp70 of S. cerevisiae, with D158N; the methods say that the tag was removed; not shown: His6, N-terminal, cleaved
B2: Ssa1-T175N, purified (natural protein)
chain: not shown
notes: Ssa1, cytosolic Hsp70 of S. cerevisiae, with T175N; the methods say that the tag was removed; not shown: His6, N-terminal, cleaved
B3: His6-Ydj1 (natural protein, S. cerevisiae, UniProt P25491 1-409, looked up)
chain: MVKETKFYDILGVPVTATDVEIKKAYRKCALKYHPDKNPSEEAAEKFKEASAAYEILSDPEKRDIYDQFGEDGLSGAGGAGGFPGGGFGFGDDIFSQFFGAGGAQRPRGPQRGKDIKHEISASLEELYKGRTAKLALNKQILCKECEGRGGKKGAVKKCTSCNGQGIKFVTRQMGPMIQRFQTECDVCHGTGDIIDPKDRCKSCNGKKVENERKILEVHVEPGMKDGQRIVFKGEADQAPDVIPGDVVFIVSERPHKSFKRDGDDLVYEAEIDLLTAIAGGEFALEHVSGDWLKVGIVPGEVIAPGMRKVIEGKGMPIPKYGGYGNLIIKFTIKFPENHFTSEENLKKLEEILPPRIVPAIPKKATVDECVLADFDPAKYNRTRASRGGANYDSDEEEQGGEGVQCASQ
notes: Ydj1, Hsp40 co-chaperone of S. cerevisiae; His6 is named and used for capture in the pull-down; also called Hsp40
B4: Ssa1 (wt), purified (natural protein)
chain: not shown
notes: Ssa1, cytosolic Hsp70 of S. cerevisiae; the methods say that the tag was removed; also called wt-Ssa1; wt Ssa1; not shown: His6, N-terminal, cleaved

Key:
His6-Ydj1 = target: B3; assay: cell-based or functional assay
Hsp82, purified [1] = target: T1, Hsp82, purified (S. cerevisiae, UniProt P02829 1-709); assay: cell-based or functional assay
Hsp82, purified [2] = target: T1, Hsp82, purified; assay: BLI; Octet K2, 30°C; Hsp82 immobilised on AR2G biosensors by amine coupling; Hsp70 1.0 uM as analyte in 25 mM Hepes pH 7.4, 150 mM NaCl, 20 mM MgCl2, 20 mM KCl, 0.1% Tween-20, 0.05% Triton X-100, 1 mM ATP; association and dissociation 200 s each; details: both partners purified
Ssa1 (wt), purified = target: B4; assay: BLI; Ssa1, Ssa2, Ssa3 and Ssa4 with Ydj1; set-up not told here (as in ref. 26)
Ssa1-T175N, purified = target: B2; assay: BLI; Ydj1 (0.75 uM) immobilised on the biosensor, Ssa Hsp70 at varying concentrations as analyte, with 5 mM ATP; details: both partners purified
Ssa1-D158N, purified = target: B1; assay: as above; details: both partners purified
Chain of Ssa1-D158N, purified (P10591 whole entry D158N): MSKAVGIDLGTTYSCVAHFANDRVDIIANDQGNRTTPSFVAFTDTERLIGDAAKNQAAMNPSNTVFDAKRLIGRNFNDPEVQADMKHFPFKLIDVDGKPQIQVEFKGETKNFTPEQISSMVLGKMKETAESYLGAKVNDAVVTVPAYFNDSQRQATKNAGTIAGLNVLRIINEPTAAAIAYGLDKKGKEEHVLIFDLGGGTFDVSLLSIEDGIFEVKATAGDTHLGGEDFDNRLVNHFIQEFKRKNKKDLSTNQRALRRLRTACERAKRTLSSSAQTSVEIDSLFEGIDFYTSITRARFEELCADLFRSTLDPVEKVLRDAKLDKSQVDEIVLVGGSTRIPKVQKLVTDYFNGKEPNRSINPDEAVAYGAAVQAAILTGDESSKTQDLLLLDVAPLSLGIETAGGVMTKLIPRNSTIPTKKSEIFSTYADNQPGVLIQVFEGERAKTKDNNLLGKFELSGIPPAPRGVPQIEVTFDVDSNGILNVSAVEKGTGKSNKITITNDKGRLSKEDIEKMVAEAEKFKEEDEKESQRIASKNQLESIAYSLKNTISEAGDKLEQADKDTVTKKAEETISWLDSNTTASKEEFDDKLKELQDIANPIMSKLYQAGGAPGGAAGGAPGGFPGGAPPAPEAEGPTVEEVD

T1 sequence (P02829 whole entry): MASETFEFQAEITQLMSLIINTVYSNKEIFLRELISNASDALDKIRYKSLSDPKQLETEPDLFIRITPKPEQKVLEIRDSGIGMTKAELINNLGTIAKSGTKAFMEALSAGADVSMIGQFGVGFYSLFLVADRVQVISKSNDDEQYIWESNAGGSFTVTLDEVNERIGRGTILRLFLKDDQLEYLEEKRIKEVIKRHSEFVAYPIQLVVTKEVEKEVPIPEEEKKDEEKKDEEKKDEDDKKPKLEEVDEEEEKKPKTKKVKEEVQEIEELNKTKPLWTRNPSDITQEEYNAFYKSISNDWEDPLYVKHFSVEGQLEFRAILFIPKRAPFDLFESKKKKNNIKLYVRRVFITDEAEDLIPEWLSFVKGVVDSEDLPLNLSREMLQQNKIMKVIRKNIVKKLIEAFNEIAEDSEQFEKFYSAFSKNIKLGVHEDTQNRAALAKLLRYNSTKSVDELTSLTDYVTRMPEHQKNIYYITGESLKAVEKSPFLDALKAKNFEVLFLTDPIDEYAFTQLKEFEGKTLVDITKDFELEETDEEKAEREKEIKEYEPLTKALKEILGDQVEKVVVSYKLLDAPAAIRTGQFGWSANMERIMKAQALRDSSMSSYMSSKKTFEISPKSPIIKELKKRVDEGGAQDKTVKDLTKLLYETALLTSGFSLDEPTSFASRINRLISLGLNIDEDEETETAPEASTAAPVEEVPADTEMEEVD
Chain of Ssa1-T175N, purified (P10591 whole entry T175N): as the sequence (P10591 whole entry D158N) above, with N158D, T175N counted along it
Chain of Ssa1 (wt), purified (P10591 whole entry): as the sequence (P10591 whole entry D158N) above, with N158D counted along it

| refolding of heat-denatured luciferase by Hsp70 with Ydj1, fold, time course to 30 min (wt Ssa1:Ydj1: 30-fold) (His6-Ydj1) [fold] | fold increase in luciferase refolding upon addition of Hsp90 (Hsp82) and Sti1 to a reaction with Ydj1 and Hsp70 (wt Ssa1: 4) (Hsp82, purified [1]) [fold] | fold by which the BLI response of wt-Ssa1 at equilibrium is higher than that of this mutant (Hsp82, purified [2]) [fold] | binding result (Ssa1 (wt), purified) | binding result (Ssa1-T175N, purified) | binding result (Ssa1-D158N, purified) | binding result (Hsp82, purified [2]) | Binder |
| --- | --- | --- | --- | --- | --- | --- | --- |
| ~60 | 2 | ~2 | – | – | – | – | B1 |
| ~60 | 2 | ~4 | – | – | – | – | B2 |
| – | – | – | binds | binds | binds | – | B3 |
| – | – | – | – | – | – | binds | B4 |
